Measured values published in patent US9499608.

What was measured:
[1] = target: WNV DIII fragment (residues 296-404) of the New York 1999 strain, expressed in E. coli and refolded (West Nile virus, New York 1999 strain) (UniProt Q9Q6P4); assay: SPR
[2] = target: WNV E ectodomain (residues 1-404) of the New York 1999 strain, expressed in E. coli and refolded (West Nile virus, New York 1999 strain) (UniProt Q9Q6P4); assay: SPR

Substance	Kd [1] [nM]	Kd [2] [nM]
mHu-E16 (mammalian CHO cell-produced humanized E16 monoclonal antibody)	32	45
pHu-E16 (plant-produced humanized E16 monoclonal antibody against West Nile virus)	41	46
